Molecular target: the molecule itself
Assay: cross-linking

B1: centromere protein B (CENP-B), full-size, from HeLa nuclei (natural protein)
chain: MGPKRRQLTFREKSRIIQEVEENPDLRKGEIARRFNIPPSTLSTILKNKRAILASERKYGVASTCRKTNKLSPYDKLEGLLIAWFQQIRAAGLPVKGIILKEKALRIAEELGMDDFTASNGWLDRFRRRHGVVSCSGVARARARNAAPRTPAAPASPAAVPSEGSGGSTTGWRAREEQPPSVAEGYASQDVFSATETSLWYDFLPDQAAGLCGGDGRPRQATQRLSVLLCANADGSEKLPPLVAGKSAKPRAGQAGLPCDYTANSKGGVTTQALAKYLKALDTRMAAESRRVLLLAGRLAAQSLDTSGLRHVQLAFFPPGTVHPLERGVVQQVKGHYRQAMLLKAMAALEGQDPSGLQLGLTEALHFVAAAWQAVEPSDIAACFREAGFGGGPNATITTSLKSEGEEEEEEEEEEEEEEGEGEEEEEEGEEEEEEGGEGEELGEEEEVEEEGDVDSDEEEEEDEESSSEGLEAEDWAQGVVEAGGSFGAYGAQEEAQCPTLHFLEGGEDSDSDSEEEDDEEEDDEDEDDDDDEEDGDEVPVPSFGEAMAYFAMVKRYLTSFPIDDRVQSHILHLEHDLVHVTRKNHARQAGVRGLGHQS
- stoichiometry N: 2

Reference: publication PMC2289762 (The Journal of Cell Biology, 1992)
